# Assay: RP-HPLC: insulin apparent solubility / percent recovery
# Conditions: 7 days at 2-8° C.
# Method: Apparent solubility was measured as the percent insulin recovery as compared to the initial formulations/conditions.
# Samples were prepared by withdrawing 100 μL from each vial at every time point and centrifuging prior to loading. Samples were stored in an autosampler at 4° C. prior to use, and were considered stable for 3 days after preparation. All samples were tested in duplicate.
# For insulin, 20 μL was injected for each HPLC run.
# To determine the apparent solubility, the peak area of insulin/insulin analog main peak and desamido peak were integrated and combined together to calculate the percentage relative to the standards. […] The data were processed using Design-Expert® 7.0 (StatEase) and the “historical data” feature. Insulin percent purity was expressed as the percent of main insulin versus all insulin species.
substance,measurement,setting,value
Insulin Aspart,"Solubility of Insulin Aspart, % remaining of the original concentration","0.2% methylparaben + […] m-cresol, pH 6.6, NaCl 50 mM",57.7%
same,"Solubility of Insulin Aspart, % remaining of the original concentration","0.2% methylparaben + […] m-cresol, pH 6.6, NaCl 80 mM",32.1%
same,"Solubility of Insulin Aspart, % remaining of the original concentration","0.2% methylparaben + […] m-cresol, pH 6.6, NaCl 110 mM",21.1%
same,"Solubility of Insulin Aspart, % remaining of the original concentration","0.2% methylparaben + […] m-cresol, pH 6.6, NaCl 140 mM",14.7%
same,"Solubility of Insulin Aspart, % remaining of the original concentration","0.2% methylparaben + […] m-cresol, pH 6.8, NaCl 50 mM",97.2%
same,"Solubility of Insulin Aspart, % remaining of the original concentration","0.2% methylparaben + […] m-cresol, pH 6.8, NaCl 80 mM",84.1%
same,"Solubility of Insulin Aspart, % remaining of the original concentration","0.2% methylparaben + […] m-cresol, pH 6.8, NaCl 110 mM",54.2%
same,"Solubility of Insulin Aspart, % remaining of the original concentration","0.2% methylparaben + […] m-cresol, pH 6.8, NaCl 140 mM",32.2%
same,"Solubility of Insulin Aspart, % remaining of the original concentration","0.2% methylparaben + […] m-cresol, pH 7.0, NaCl 50 mM",98.7%
same,"Solubility of Insulin Aspart, % remaining of the original concentration","0.2% methylparaben + […] m-cresol, pH 7.0, NaCl 80 mM",100.2%
same,"Solubility of Insulin Aspart, % remaining of the original concentration","0.2% methylparaben + […] m-cresol, pH 7.0, NaCl 110 mM",96.3%
same,"Solubility of Insulin Aspart, % remaining of the original concentration","0.2% methylparaben + […] m-cresol, pH 7.0, NaCl 140 mM",67.9%
same,"Solubility of Insulin Aspart, % remaining of the original concentration","0.2% methylparaben + […] m-cresol, pH 7.2, NaCl 50 mM",99.0%
same,"Solubility of Insulin Aspart, % remaining of the original concentration","0.2% methylparaben + […] m-cresol, pH 7.2, NaCl 80 mM",100.2%
same,"Solubility of Insulin Aspart, % remaining of the original concentration","0.2% methylparaben + […] m-cresol, pH 7.2, NaCl 110 mM",99.5%
same,"Solubility of Insulin Aspart, % remaining of the original concentration","0.2% methylparaben + […] m-cresol, pH 7.2, NaCl 140 mM",101.6%
same,"Solubility of Insulin Aspart, % remaining of the original concentration","0.2% methylparaben + […] m-cresol, pH 7.4, NaCl 50 mM",99.1%
same,"Solubility of Insulin Aspart, % remaining of the original concentration","0.2% methylparaben + […] m-cresol, pH 7.4, NaCl 80 mM",100.5%
same,"Solubility of Insulin Aspart, % remaining of the original concentration","0.2% methylparaben + […] m-cresol, pH 7.4, NaCl 110 mM",99.6%
same,"Solubility of Insulin Aspart, % remaining of the original concentration","0.2% methylparaben + […] m-cresol, pH 7.4, NaCl 140 mM",99.6%
same,"Solubility of Insulin Aspart, % remaining of the original concentration","0.2% methylparaben + […] m-cresol, pH 7.6, NaCl 50 mM",99.3%
same,"Solubility of Insulin Aspart, % remaining of the original concentration","0.2% methylparaben + […] m-cresol, pH 7.6, NaCl 80 mM",100.6%
same,"Solubility of Insulin Aspart, % remaining of the original concentration","0.2% methylparaben + […] m-cresol, pH 7.6, NaCl 110 mM",99.8%
same,"Solubility of Insulin Aspart, % remaining of the original concentration","0.2% methylparaben + […] m-cresol, pH 7.6, NaCl 140 mM",99.8%
same,"Solubility of Insulin Aspart, % remaining of the original concentration","0.2% phenol + […] m-cresol, pH 6.6, NaCl 50 mM",91.8%
same,"Solubility of Insulin Aspart, % remaining of the original concentration","0.2% phenol + […] m-cresol, pH 6.6, NaCl 80 mM",59.2%
same,"Solubility of Insulin Aspart, % remaining of the original concentration","0.2% phenol + […] m-cresol, pH 6.6, NaCl 110 mM",58.0%
same,"Solubility of Insulin Aspart, % remaining of the original concentration","0.2% phenol + […] m-cresol, pH 6.6, NaCl 140 mM",39.3%
same,"Solubility of Insulin Aspart, % remaining of the original concentration","0.2% phenol + […] m-cresol, pH 6.8, NaCl 50 mM",98.8%
same,"Solubility of Insulin Aspart, % remaining of the original concentration","0.2% phenol + […] m-cresol, pH 6.8, NaCl 80 mM",91.8%
same,"Solubility of Insulin Aspart, % remaining of the original concentration","0.2% phenol + […] m-cresol, pH 6.8, NaCl 110 mM",72.8%
same,"Solubility of Insulin Aspart, % remaining of the original concentration","0.2% phenol + […] m-cresol, pH 6.8, NaCl 140 mM",50.9%
same,"Solubility of Insulin Aspart, % remaining of the original concentration","0.2% phenol + […] m-cresol, pH 7.0, NaCl 50 mM",99.1%
same,"Solubility of Insulin Aspart, % remaining of the original concentration","0.2% phenol + […] m-cresol, pH 7.0, NaCl 80 mM",100.6%
same,"Solubility of Insulin Aspart, % remaining of the original concentration","0.2% phenol + […] m-cresol, pH 7.0, NaCl 110 mM",99.9%
same,"Solubility of Insulin Aspart, % remaining of the original concentration","0.2% phenol + […] m-cresol, pH 7.0, NaCl 140 mM",88.9%
same,"Solubility of Insulin Aspart, % remaining of the original concentration","0.2% phenol + […] m-cresol, pH 7.2, NaCl 50 mM",99.1%
same,"Solubility of Insulin Aspart, % remaining of the original concentration","0.2% phenol + […] m-cresol, pH 7.2, NaCl 80 mM",100.5%
same,"Solubility of Insulin Aspart, % remaining of the original concentration","0.2% phenol + […] m-cresol, pH 7.2, NaCl 110 mM",100.0%
same,"Solubility of Insulin Aspart, % remaining of the original concentration","0.2% phenol + […] m-cresol, pH 7.2, NaCl 140 mM",99.7%
same,"Solubility of Insulin Aspart, % remaining of the original concentration","0.2% phenol + […] m-cresol, pH 7.4, NaCl 50 mM",99.2%
same,"Solubility of Insulin Aspart, % remaining of the original concentration","0.2% phenol + […] m-cresol, pH 7.4, NaCl 80 mM",100.6%
same,"Solubility of Insulin Aspart, % remaining of the original concentration","0.2% phenol + […] m-cresol, pH 7.4, NaCl 110 mM",100.0%
same,"Solubility of Insulin Aspart, % remaining of the original concentration","0.2% phenol + […] m-cresol, pH 7.4, NaCl 140 mM",99.7%
same,"Solubility of Insulin Aspart, % remaining of the original concentration","0.2% phenol + […] m-cresol, pH 7.6, NaCl 50 mM",99.2%
same,"Solubility of Insulin Aspart, % remaining of the original concentration","0.2% phenol + […] m-cresol, pH 7.6, NaCl 80 mM",100.8%
same,"Solubility of Insulin Aspart, % remaining of the original concentration","0.2% phenol + […] m-cresol, pH 7.6, NaCl 110 mM",100.2%
same,"Solubility of Insulin Aspart, % remaining of the original concentration","0.2% phenol + […] m-cresol, pH 7.6, NaCl 140 mM",99.8%
same,"Solubility of Insulin Aspart, % remaining of the original concentration","[…] phenol + […] m-cresol, pH 6.6, NaCl 50 mM",97.9%
same,"Solubility of Insulin Aspart, % remaining of the original concentration","[…] phenol + […] m-cresol, pH 6.6, NaCl 80 mM",86.3%
same,"Solubility of Insulin Aspart, % remaining of the original concentration","[…] phenol + […] m-cresol, pH 6.6, NaCl 110 mM",54.4%
same,"Solubility of Insulin Aspart, % remaining of the original concentration","[…] phenol + […] m-cresol, pH 6.6, NaCl 140 mM",38.3%
same,"Solubility of Insulin Aspart, % remaining of the original concentration","[…] phenol + […] m-cresol, pH 6.8, NaCl 50 mM",99.8%
same,"Solubility of Insulin Aspart, % remaining of the original concentration","[…] phenol + […] m-cresol, pH 6.8, NaCl 80 mM",97.9%
same,"Solubility of Insulin Aspart, % remaining of the original concentration","[…] phenol + […] m-cresol, pH 6.8, NaCl 110 mM",97.5%
same,"Solubility of Insulin Aspart, % remaining of the original concentration","[…] phenol + […] m-cresol, pH 6.8, NaCl 140 mM",60.5%
same,"Solubility of Insulin Aspart, % remaining of the original concentration","[…] phenol + […] m-cresol, pH 7.0, NaCl 50 mM",99.7%
same,"Solubility of Insulin Aspart, % remaining of the original concentration","[…] phenol + […] m-cresol, pH 7.0, NaCl 80 mM",99.3%
same,"Solubility of Insulin Aspart, % remaining of the original concentration","[…] phenol + […] m-cresol, pH 7.0, NaCl 110 mM",99.3%
same,"Solubility of Insulin Aspart, % remaining of the original concentration","[…] phenol + […] m-cresol, pH 7.0, NaCl 140 mM",100.2%
same,"Solubility of Insulin Aspart, % remaining of the original concentration","[…] phenol + […] m-cresol, pH 7.2, NaCl 50 mM",99.1%
same,"Solubility of Insulin Aspart, % remaining of the original concentration","[…] phenol + […] m-cresol, pH 7.2, NaCl 80 mM",99.2%
same,"Solubility of Insulin Aspart, % remaining of the original concentration","[…] phenol + […] m-cresol, pH 7.2, NaCl 110 mM",99.2%
same,"Solubility of Insulin Aspart, % remaining of the original concentration","[…] phenol + […] m-cresol, pH 7.2, NaCl 140 mM",101.1%
same,"Solubility of Insulin Aspart, % remaining of the original concentration","[…] phenol + […] m-cresol, pH 7.4, NaCl 50 mM",100.0%
same,"Solubility of Insulin Aspart, % remaining of the original concentration","[…] phenol + […] m-cresol, pH 7.4, NaCl 80 mM",99.6%
same,"Solubility of Insulin Aspart, % remaining of the original concentration","[…] phenol + […] m-cresol, pH 7.4, NaCl 110 mM",99.5%
same,"Solubility of Insulin Aspart, % remaining of the original concentration","[…] phenol + […] m-cresol, pH 7.4, NaCl 140 mM",101.1%
same,"Solubility of Insulin Aspart, % remaining of the original concentration","[…] phenol + […] m-cresol, pH 7.6, NaCl 50 mM",100.1%
same,"Solubility of Insulin Aspart, % remaining of the original concentration","[…] phenol + […] m-cresol, pH 7.6, NaCl 80 mM",99.7%
same,"Solubility of Insulin Aspart, % remaining of the original concentration","[…] phenol + […] m-cresol, pH 7.6, NaCl 110 mM",99.4%
same,"Solubility of Insulin Aspart, % remaining of the original concentration","[…] phenol + […] m-cresol, pH 7.6, NaCl 140 mM",101.1%

# Source: US20130011378A1, “Stable formulations of a hyaluronan-degrading enzyme” (priority 2011, published 2013)
